Values quoted from earlier work, collected in PMC8384639.

Biological target: Histone H3 K4me3 peptide 1-15 (Homo sapiens) (UniProt P68431)

Kd: 2.7 µM
Substance: BPTF PHD (from UniProt Q12830)
